The data set is described as follows: protein stability index of a GFP-peptide fusion (GPS, HEK-293T) (PSI 1-6); higher = more stable. Particulars: c terminus: a fixed tail appended.

± gives the standard deviation.
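Note: 24-mer peptide tiles fused after GFP, lentivirally expressed, FACS-sorted into six equal bins by GFP/DsRed ratio, decoded by Illumina sequencing, PSI is the read-weighted mean bin number.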

With TQKLSKIETLRLAKNYIWALSEIL [NEUROD6], the protein stability index came out at 2.61 ± 0.49 (treatment: DMSO) and 2.67 ± 0.47 (treatment: MLN4924 1 uM, 8 h).

Take PEEPSAEDSINNSLVQLQASHQQQ [MYBL2]: the protein stability index (treatment: DMSO) came out at 5.62 ± 0.18 and the protein stability index (treatment: MLN4924 1 uM, 8 h) is 5.55 ± 0.16.

In turn, EHQYRLPPMGKAFQELAGKELCAM [SPDEF] returned a protein stability index (treatment: DMSO) of 3.19 ± 0.26 and a protein stability index (treatment: MLN4924 1 uM, 8 h) of 3.23 ± 0.098.

CLGLSYDGLLGDNQIMPKAGLLII [MAGEA3]: the protein stability index came out at 3.12 ± 0.68 (treatment: DMSO) and 2.73 ± 0.61 (treatment: MLN4924 1 uM, 8 h).

Regarding LALCQRYYHRGHVDPANDTFDIDP [MCOLN1], the protein stability index is, setting by setting: (treatment: DMSO) 3.11 ± 0.13; (treatment: MLN4924 1 uM, 8 h) 3.23 ± 0.29.

Take AMYIDTEGTFRPERLLAVAERYGL [RAD51]: the protein stability index stood at 2.37 ± 0.19 (treatment: DMSO) and 2.39 ± 0.27 (treatment: MLN4924 1 uM, 8 h).

Take VVEVENFLFVLGGEDQWNPNGKHS [KLHL14]: the protein stability index reads like this: (treatment: DMSO) 2.39 ± 0.31; (treatment: MLN4924 1 uM, 8 h) 2.37 ± 0.19.

On to FSLVGKRAISTSVCVRAHESVVKS [COX4I1], for which the protein stability index was found to be 2.75 ± 0.14 (treatment: DMSO) and 2.94 ± 0.3 (treatment: MLN4924 1 uM, 8 h).

In the case of LQPLSKPLSSQPQAIVTEDKTDIS [MLH1], the protein stability index runs as follows: (treatment: DMSO) 5.31 ± 0.19; (treatment: MLN4924 1 uM, 8 h) 5.19 ± 0.14.

SVKIPVRNHGILMETHKELKPLLS [LYSMD4] yielded a protein stability index (treatment: DMSO) of 2.86 ± 0.13 and a protein stability index (treatment: MLN4924 1 uM, 8 h) of 3.17 ± 0.36.

As for EPDAADGPYDPNSVRISFAKGWGP [SMAD6], the protein stability index reads like this: (treatment: DMSO) 4.17 ± 0.13; (treatment: MLN4924 1 uM, 8 h) 4.19 ± 0.17.

In the case of APSCAIMISTYEFGKSFFQRLNQD [SLC25A39], the protein stability index runs as follows: (treatment: DMSO) 2.47 ± 0.86; (treatment: MLN4924 1 uM, 8 h) 2.06 ± 0.33.

Turning to AQAIDFINRCSVLRQLGCKDGKNW [SPOPL], the protein stability index by setting is: (treatment: DMSO) 2.29 ± 0.24; (treatment: MLN4924 1 uM, 8 h) 2.58 ± 0.42.

Turning to DGSVVRDFEHRPKAPVVECSITGD [WDR88], the protein stability index reads like this: (treatment: DMSO) 5.4 ± 0.21; (treatment: MLN4924 1 uM, 8 h) 5.32 ± 0.16.

For the sequence QRYEHGRTLKSYLGLTNQSRRYNR [ZNF649], the protein stability index was 3.39 ± 0.21 (treatment: DMSO) and 3.59 ± 0.29 (treatment: MLN4924 1 uM, 8 h).

Take RQMHLARFLRMLLRLADEFGVAVV [RAD51]: the protein stability index (treatment: DMSO) worked out at 2.55 ± 0.41 and the protein stability index (treatment: MLN4924 1 uM, 8 h) came to 2.68 ± 0.28.

As for EIANEDRKHALERFEQEAVAVDSN [CCDC89], the protein stability index turned out to be 5.01 ± 0.42 (treatment: DMSO) and 5.31 ± 0.16 (treatment: MLN4924 1 uM, 8 h).

Take GEDSSTSSSTPLEDEEPQEPNRLE [RTN2]: the protein stability index reads like this: (treatment: DMSO) 5.56 ± 0.26; (treatment: MLN4924 1 uM, 8 h) 5.57 ± 0.25.

Turning to VYMTEPIDEYCVQQLKEFDGKSLV [HSP90AB1], the protein stability index was 3.06 ± 0.15 (treatment: DMSO) and 3.29 ± 0.25 (treatment: MLN4924 1 uM, 8 h).

With GFFSSAFQARLSGNNLHNASIPEH [POMT2], the protein stability index was 2.81 ± 0.44 (treatment: DMSO) and 3.07 ± 0.35 (treatment: MLN4924 1 uM, 8 h).

In the case of HPKPKLVRVLESLLVSLVTTVVVF [CLCN6], the protein stability index was found to be 3.49 ± 0.47 (treatment: DMSO) and 3.56 ± 0.25 (treatment: MLN4924 1 uM, 8 h).

For the sequence EEMWTFRGKIHAFRGQILGFWEEE [CCDC70], the protein stability index is, setting by setting: (treatment: DMSO) 2.15 ± 0.41; (treatment: MLN4924 1 uM, 8 h) 2.35 ± 0.26.

As for YCESHAKARVKPPEGYDVVAVYPN [PDLIM4], the protein stability index (treatment: DMSO) came out at 3.74 ± 0.38 and the protein stability index (treatment: MLN4924 1 uM, 8 h) is 4.08 ± 0.25.

LGSPYGQPPRFPVPHNGSSEATLP [PDLIM4]: the protein stability index by setting is: (treatment: DMSO) 4.52 ± 0.31; (treatment: MLN4924 1 uM, 8 h) 4.6 ± 0.22.

For the sequence SILLCLLASGLVVFFLFPHSVLVD [TMEM106C], the protein stability index reads like this: (treatment: DMSO) 3 ± 0.49; (treatment: MLN4924 1 uM, 8 h) 2.56 ± 0.044.

For the sequence RWPFDHNDFGVFLCKLFPFLQKSS [EDNRA], the protein stability index is 2.2 ± 0.19 (treatment: DMSO) and 2.05 ± 0.38 (treatment: MLN4924 1 uM, 8 h).

Regarding YVGEPLVCEVQVHGGSLLGKKYNW [GFOD1], the protein stability index was 2.61 ± 0.62 (treatment: DMSO) and 2.18 ± 0.42 (treatment: MLN4924 1 uM, 8 h).

As for MSEIRFTNLTWDQVITLDQVLDEV [TENT5D], the protein stability index is 2.33 ± 0.33 (treatment: DMSO) and 2.31 ± 0.27 (treatment: MLN4924 1 uM, 8 h).

On to GPSNTSHSSSRDSHLSNGLDPVAE [C2CD2L], for which the protein stability index turned out to be 5.337 ± 0.041 (treatment: DMSO) and 5.23 ± 0.089 (treatment: MLN4924 1 uM, 8 h).

Sequence VQRLQAYTATEQEMQQQMSLGELC [TRIM14] registered a protein stability index (treatment: DMSO) of 4 ± 0.077 and a protein stability index (treatment: MLN4924 1 uM, 8 h) of 3.9 ± 0.21.

On to MELQKGKGAAAAAAASGAAGGGGG [INTS3], for which the protein stability index was 5.19 ± 0.43 (treatment: DMSO) and 5.26 ± 0.36 (treatment: MLN4924 1 uM, 8 h).

In the case of THACREYLKNLPLLSKYCGYREDN [TPH1], the protein stability index (treatment: DMSO) was 2.22 ± 0.26 and the protein stability index (treatment: MLN4924 1 uM, 8 h) was 2.18 ± 0.41.

LTKYPTDRDSIWKCLKFLGSRHPT [INTS4] registered a protein stability index (treatment: DMSO) of 2.38 ± 0.19 and a protein stability index (treatment: MLN4924 1 uM, 8 h) of 2.39 ± 0.095.

RTVAIWDVAEGYRKLSLKGHNDWV [WDR88] returned a protein stability index (treatment: DMSO) of 2.46 ± 0.38 and a protein stability index (treatment: MLN4924 1 uM, 8 h) of 2.54 ± 0.44.

As to NENDFYDGAWCAGRNDLQQWIEVD [CPXM2], the protein stability index (treatment: DMSO) is 4.22 ± 0.46 and the protein stability index (treatment: MLN4924 1 uM, 8 h) was found to be 4.05 ± 0.3.

On to NTEDWRPRPGTGQSRSFRILAHLT [PDLIM7], for which the protein stability index was determined as 2.81 ± 0.33 (treatment: DMSO) and 2.9 ± 0.22 (treatment: MLN4924 1 uM, 8 h).

Values taken from the supplement of paper PMC10567573.
